For this experiment, the target named is SARS-CoV-2 S-protein RBD (SARS-CoV-2, UniProt P0DTC2). Put plainly: SPR. Background: Surface plasmon resonance follows binding to a sensor surface in real time, without labels.

For one molecule, koff results are on record in publication PMC8326117 (2021).

The term koff denotes a measure of how fast the partners let go of each other. Low values mean a long-lived complex, high ones a short-lived complex.

B1: S-protein neutralizing peptide AYn1 (peptide)
peptide: KKKKKKDKFNHEAEDLFY
Molecule B1 registered a koff of 0.001 s⁻¹.
